The values that follow come from US20210388087A1 (Chugai, published 2021).

The labels stand for the following.
T1: Human CD3eg linker (human)
T1 construct: single-chain construct; also called recombinant human CD3
T1 chain: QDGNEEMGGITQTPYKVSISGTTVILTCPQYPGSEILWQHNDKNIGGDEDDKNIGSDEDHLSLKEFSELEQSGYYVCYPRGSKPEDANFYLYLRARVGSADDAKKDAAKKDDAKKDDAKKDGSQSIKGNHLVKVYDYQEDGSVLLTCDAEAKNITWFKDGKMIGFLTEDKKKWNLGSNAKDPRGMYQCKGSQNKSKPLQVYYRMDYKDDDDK

B1: dBBDu183H P100eK/dBBDu072L (antibody, name in Kabat numbering, V domains shown)
VH: QVQLVESGGGLVQPGRSLRLSCAASGFTFSNAWMHWVRQAPGKGLEWVAQIKDKGNAYAAYYAPSVKGRFTISRDDSKNSIYLQMNSLKTEDTAVYYCHYVHYASASTVLKAFGVDAWGQGTTVTVSS
VL: DIVMTQSPLSLPVTPGEPASISCQASQELVHMNRNTYLHWYQQKPGQAPRLLIYKVSNRFPGVPDRFSGSGSGTDFTLKISRVEAEDVGVYYCAQGTSVPFTFGQGTKLEIK
B2: dBBDu183H S62F/dBBDu072L (antibody, name in Kabat numbering, V domains shown)
VH: B1 VH with S65F, K111P
VL: B1 VL
B3: dBBDu183H S62E/dBBDu072L (antibody, name in Kabat numbering, V domains shown)
VH: B1 VH with S65E, K111P
VL: B1 VL
B4: dBBDu183H P100eT/dBBDu072L (antibody, name in Kabat numbering, V domains shown)
VH: B1 VH with K111T
VL: B1 VL
B5: dBBDu183H P100eQ/dBBDu072L (antibody, name in Kabat numbering, V domains shown)
VH: B1 VH with K111Q
VL: B1 VL
B6: dBBDu183H P100eY/dBBDu072L (antibody, name in Kabat numbering, V domains shown)
VH: B1 VH with K111Y
VL: B1 VL
B7: dBBDu183H P100eR/dBBDu072L (antibody, name in Kabat numbering, V domains shown)
VH: B1 VH with K111R
VL: B1 VL
B8: dBBDu183H S62D/dBBDu072L (antibody, name in Kabat numbering, V domains shown)
VH: B1 VH with S65D, K111P
VL: B1 VL
B9: dBBDu183H S62H/dBBDu072L (antibody, name in Kabat numbering, V domains shown)
VH: B1 VH with S65H, K111P
VL: B1 VL
B10: dBBDu183H S62N/dBBDu072L (antibody, name in Kabat numbering, V domains shown)
VH: B1 VH with S65N, K111P
VL: B1 VL
B11: dBBDu183H S62Q/dBBDu072L (antibody, name in Kabat numbering, V domains shown)
VH: B1 VH with S65Q, K111P
VL: B1 VL
B12: dBBDu183H S62K/dBBDu072L (antibody, name in Kabat numbering, V domains shown)
VH: B1 VH with S65K, K111P
VL: B1 VL
B13: dBBDu183H P100eS/dBBDu072L (antibody, name in Kabat numbering, V domains shown)
VH: B1 VH with K111S
VL: B1 VL
B14: dBBDu183H P100eW/dBBDu072L (antibody, name in Kabat numbering, V domains shown)
VH: B1 VH with K111W
VL: B1 VL
B15: dBBDu183H P100eV/dBBDu072L (antibody, name in Kabat numbering, V domains shown)
VH: B1 VH with K111V
VL: B1 VL
B16: dBBDu183H P100eN/dBBDu072L (antibody, name in Kabat numbering, V domains shown)
VH: B1 VH with K111N
VL: B1 VL
B17: dBBDu183H S62G/dBBDu072L (antibody, name in Kabat numbering, V domains shown)
VH: B1 VH with S65G, K111P
VL: B1 VL

Changes are numbered by the printed parent chain. Numbers in names are those of the source.

In the assay the target is T1, Human CD3eg linker. As to the kind of experiment: SPR, vs unmutated H183/L072.
For the molecule B1, the “fold change of affinity” value was determined as 2.1 fold.

Regarding B2, the “fold change of affinity” value is 1.9 fold.

For B3, the “fold change of affinity” value is 1.2 fold.

For B4, the “fold change of affinity” value is 1.4 fold.

As for B5, the “fold change of affinity” value came to 1.5 fold.

Turning to B6, the “fold change of affinity” value was found to be 2 fold.

On to B7, for which the “fold change of affinity” value worked out at 2.2 fold.

Take B8: the “fold change of affinity” value worked out at 1.2 fold.

For the molecule B9, the “fold change of affinity” value turned out to be 1.3 fold.

Turning to B10, the “fold change of affinity” value was determined as 1.4 fold.

Regarding B11, the “fold change of affinity” value was found to be 1.3 fold.

For B12, the “fold change of affinity” value was found to be 1.4 fold.

As to B13, the “fold change of affinity” value turned out to be 1.2 fold.

For B14, the “fold change of affinity” value amounted to 1.7 fold.

For B15, the “fold change of affinity” value came out at 1.5 fold.

As for B16, the “fold change of affinity” value is 1.3 fold.

With B17, the “fold change of affinity” value is 1.4 fold.
